Assay results as given in US8889621B2, “Inhibiting binding of FGF23 to the binary FGFR-Klotho complex for the treatment of hypophosphatemia” (New York University, priority 2009, dated 2014).
Entries after “also recorded” stand apart in the source; their conditions may differ.

Assays:
[1] = test system: binary FGFR-Klotho complex; assay: Pull-down / co-precipitation of FGF23 proteins with FGFR-Klotho complex; assay type: binding; conditions: HEK293-Klotho cell lysate
Protocol: A pull-down assay may also be used to confirm the existence of a protein:protein interaction (i.e. FGF23^180-251 binding to the binary FGFR-Klotho complex). One aspect of the present invention utilizes pull-down assays. These assays involved subconfluent cultures of a HEK293 cell line ectopically expressing the FLAG-tagged membrane-spanning form of murine Klotho, which were harvested and lysed. Cell lysate was incubated with FGF23^28-251, FGF23^28-200, FGF23^28-179, FGF23^180-251, or protein sample buffer, and binary complexes of Klotho and endogenous FGFR were isolated from cell lysate using anti-FLAG M2 agarose beads. […]
In parallel, subconfluent HEK293-Klotho cells (Kurosu et al., “Regulation of Fibroblast Growth Factor-23 Signaling by Klotho,” J Biol Chem 281(10):6120-6123 (2006), which is hereby incorporated by reference in its entirety) were transfected with expression vectors for V5-tagged FGFR1c, FGFR3c, or FGFR4 (Kurosu et al., “Regulation of Fibroblast Growth Factor-23 Signaling by Klotho,” J Biol Chem 281(10):6120-6123 (2006), which is hereby incorporated by reference in its entirety) and binding of FGF23 proteins/peptides to Klotho-FGFR complexes isolated from cell lysate was analyzed. […]

[2] = molecular target: T1, FGFR1c-βKlotho-FGF21 (UniProt P11362+Q99N32); assay: SPR specificity: FGFR1c-βKlotho binding to immobilized FGF21^29-209; design: species or system human FGFR1c, murine βKlotho, human FGF21; conditions: 10-fold molar excess over FGFR1c-βKlotho
T1 construct: the ectodomain of murine βKlotho (F53 to L995) was expressed in HEK293 cells; FLAG (C); made in house; host or cells: E. coli (FGFR1c, FGF21); HEK293 (βKlotho ectodomain)
T1 sequence (P11362 142-365): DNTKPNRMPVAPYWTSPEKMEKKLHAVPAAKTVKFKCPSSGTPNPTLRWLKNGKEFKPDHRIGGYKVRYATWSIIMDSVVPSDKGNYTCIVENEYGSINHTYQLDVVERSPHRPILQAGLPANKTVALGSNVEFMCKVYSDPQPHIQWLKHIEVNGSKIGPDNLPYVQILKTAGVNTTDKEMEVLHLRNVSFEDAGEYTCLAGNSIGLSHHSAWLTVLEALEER
T1 sequence (Q99N32 53-995): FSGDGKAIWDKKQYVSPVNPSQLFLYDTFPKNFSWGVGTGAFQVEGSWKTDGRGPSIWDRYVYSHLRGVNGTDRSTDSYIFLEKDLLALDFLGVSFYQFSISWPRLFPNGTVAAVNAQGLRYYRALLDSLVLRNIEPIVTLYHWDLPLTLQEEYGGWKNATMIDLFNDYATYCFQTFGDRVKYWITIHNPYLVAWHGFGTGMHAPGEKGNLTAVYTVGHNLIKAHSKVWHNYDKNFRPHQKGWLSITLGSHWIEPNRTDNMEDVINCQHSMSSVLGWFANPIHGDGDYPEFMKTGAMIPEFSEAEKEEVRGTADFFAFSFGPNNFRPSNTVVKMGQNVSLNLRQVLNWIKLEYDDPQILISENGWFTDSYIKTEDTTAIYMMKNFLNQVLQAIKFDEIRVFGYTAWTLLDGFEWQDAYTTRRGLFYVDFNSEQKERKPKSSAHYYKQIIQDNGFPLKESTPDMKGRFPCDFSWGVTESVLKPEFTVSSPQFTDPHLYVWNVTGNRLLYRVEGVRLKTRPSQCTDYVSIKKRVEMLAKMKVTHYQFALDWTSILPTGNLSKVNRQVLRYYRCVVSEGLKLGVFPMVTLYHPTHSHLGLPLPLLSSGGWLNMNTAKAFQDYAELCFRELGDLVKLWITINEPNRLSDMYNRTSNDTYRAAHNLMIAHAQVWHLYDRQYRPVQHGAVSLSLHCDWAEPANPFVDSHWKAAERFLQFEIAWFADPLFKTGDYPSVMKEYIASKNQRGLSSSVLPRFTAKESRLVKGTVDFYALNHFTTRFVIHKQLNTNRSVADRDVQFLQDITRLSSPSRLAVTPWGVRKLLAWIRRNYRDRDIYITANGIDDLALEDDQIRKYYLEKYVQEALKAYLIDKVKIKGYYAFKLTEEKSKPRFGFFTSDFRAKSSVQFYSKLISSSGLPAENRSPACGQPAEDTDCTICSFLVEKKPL

Chain of binary FGFR-Klotho complex (O35082 35-1014, one chain of several): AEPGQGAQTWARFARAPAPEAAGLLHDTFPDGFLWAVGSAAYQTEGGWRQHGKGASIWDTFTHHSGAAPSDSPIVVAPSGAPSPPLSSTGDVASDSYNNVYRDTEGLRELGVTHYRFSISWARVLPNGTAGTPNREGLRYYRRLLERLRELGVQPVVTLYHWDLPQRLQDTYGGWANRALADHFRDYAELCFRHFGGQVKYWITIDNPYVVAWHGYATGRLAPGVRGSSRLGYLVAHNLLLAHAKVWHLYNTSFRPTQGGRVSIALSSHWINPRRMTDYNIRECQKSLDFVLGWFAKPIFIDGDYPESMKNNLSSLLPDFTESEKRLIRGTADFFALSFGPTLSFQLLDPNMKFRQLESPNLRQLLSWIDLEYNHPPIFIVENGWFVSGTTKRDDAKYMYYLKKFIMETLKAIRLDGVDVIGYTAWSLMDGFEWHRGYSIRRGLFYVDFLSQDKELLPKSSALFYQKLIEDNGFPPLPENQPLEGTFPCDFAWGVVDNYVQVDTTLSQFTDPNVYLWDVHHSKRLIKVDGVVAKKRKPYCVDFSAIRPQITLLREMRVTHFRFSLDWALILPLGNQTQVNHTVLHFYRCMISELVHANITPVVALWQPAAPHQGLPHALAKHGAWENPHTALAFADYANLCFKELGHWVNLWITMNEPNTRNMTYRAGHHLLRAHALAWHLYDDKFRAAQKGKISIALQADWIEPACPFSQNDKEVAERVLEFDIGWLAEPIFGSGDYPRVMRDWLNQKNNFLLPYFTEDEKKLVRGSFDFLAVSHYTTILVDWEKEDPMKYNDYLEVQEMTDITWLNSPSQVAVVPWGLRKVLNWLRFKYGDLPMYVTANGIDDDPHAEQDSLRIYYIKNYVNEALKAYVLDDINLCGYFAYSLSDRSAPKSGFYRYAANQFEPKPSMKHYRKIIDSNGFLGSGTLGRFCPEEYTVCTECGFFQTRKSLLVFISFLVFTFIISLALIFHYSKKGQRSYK

B1: FGF23^180-251: 72-amino acid C-terminal tail of human FGF23 (S180 to I251), expressed in E. coli (protein, listed as Homo sapiens)
chain: SAEDDSERDPLNVLKPRARMTPAPASCSQELPSAEDNSPMASDPLGVVRGGRVNTHAGGTGPEGCRPFAKFI
co-precipitation with the binary FGFR-Klotho complex [1]: co-precipitated with each of the three binary FGFR-Klotho complexes | inhibition of FGFR1c-βKlotho binding to immobilized FGF21 [2]: did not affect; also recorded: no inhibition
